Assays:
[1] = target: T1, FcγRIa extracellular domain with C-terminal His tag (human, UniProt P12314 16-292); test: SPR Biacore, antibody captured, FcγRIa analyte; vs GpH7-B3/GpL16-k0 = 100
T1 construct: extracellular domain; Expressed in FreeStyle293 cells; analyte in Biacore; also called FcgRI; FcgRIa

[2] = target: T1, FcγRIa extracellular domain with …; test: SPR Biacore, antibody captured, FcγRIa analyte; vs GpH7-A5/GpH7-B3/GpL16-k0 = 100

T1 sequence (P12314 16-292): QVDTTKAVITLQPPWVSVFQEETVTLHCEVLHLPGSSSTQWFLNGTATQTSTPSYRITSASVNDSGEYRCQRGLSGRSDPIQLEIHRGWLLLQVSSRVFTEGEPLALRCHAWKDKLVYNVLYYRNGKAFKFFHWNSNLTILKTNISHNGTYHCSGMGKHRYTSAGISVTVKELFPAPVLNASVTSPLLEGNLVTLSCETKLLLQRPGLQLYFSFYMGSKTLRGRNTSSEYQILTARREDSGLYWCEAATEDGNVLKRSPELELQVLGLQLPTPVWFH

B1: GpH7-B3 variant S239_01G/GpL16-k0 (Ho Ab) (antibody, human IgG1, kappa)
heavy: not shown
light: DIVMTQSPLSLPVTPGEPASISCQASESLVHSNRNTYLHWYLQKPGQSPQLLIYKVSNRFSGVPDRFSGSGSGTDFTLKISRVEAEDVGVYYCSQNTHVPPTFGQGTKVEIERTVAAPSVFIFPPSDEQLKSGTASVVCLLNNFYPREAKVQWKVDNALQSGNSQESVTEQDSKDSTYSLSSTLTLSKADYEKHKVYACEVTHQGLSSPVTKSFNRGEC
notes: Ho Ab: alteration in both H chains
Ho/Con_1a [1]: 101 relative (control = 100)

B2: GpH7-A5/GpH7-B3 variant P271_02A/GpL16-k0 (He Ab) (antibody, human IgG1, kappa)
heavy 1: not shown
heavy 2: not shown
light: B1 light
notes: He Ab: alteration only in the GpH7-B3 chain
He/Con_1a [2]: 104 relative (control = 100)

B3: GpH7-A5/GpH7-B3 variant I336_04F/GpL16-k0 (He Ab) (antibody, human IgG1, kappa)
heavy 1: not shown
heavy 2: not shown
light: B1 light
notes: as for B2
He/Con_1a [2]: 106 relative (control = 100)

B4: GpH7-A5/GpH7-B3 variant A330_09D/GpL16-k0 (He Ab) (antibody, human IgG1, kappa)
heavy 1: not shown
heavy 2: not shown
light: B1 light
notes: as for B2
He/Con_1a [2]: 109 relative (control = 100)

B5: GpH7-A5/GpH7-B3 variant G236_20W/GpL16-k0 (He Ab) (antibody, human IgG1, kappa)
heavy 1: not shown
heavy 2: not shown
light: B1 light
notes: He Ab: alteration only in the GpH7-B3 chain; also called GpH7-A5/GpH7-B3-03-20W/GpL16-k0
He/Con_1a [2]: 105 relative (control = 100)

B6: GpH7-A5/GpH7-B3 variant I336_06M/GpL16-k0 (He Ab) (antibody, human IgG1, kappa)
heavy 1: not shown
heavy 2: not shown
light: B1 light
notes: as for B2
He/Con_1a [2]: 108 relative (control = 100)

B7: GpH7-A5/GpH7-B3 variant E269_06M/GpL16-k0 (He Ab) (antibody, human IgG1, kappa)
heavy 1: not shown
heavy 2: not shown
light: B1 light
notes: as for B2
He/Con_1a [2]: 104 relative (control = 100)

B8: GpH7-B3 variant S298_03V/GpL16-k0 (Ho Ab) (antibody, human IgG1, kappa)
heavy: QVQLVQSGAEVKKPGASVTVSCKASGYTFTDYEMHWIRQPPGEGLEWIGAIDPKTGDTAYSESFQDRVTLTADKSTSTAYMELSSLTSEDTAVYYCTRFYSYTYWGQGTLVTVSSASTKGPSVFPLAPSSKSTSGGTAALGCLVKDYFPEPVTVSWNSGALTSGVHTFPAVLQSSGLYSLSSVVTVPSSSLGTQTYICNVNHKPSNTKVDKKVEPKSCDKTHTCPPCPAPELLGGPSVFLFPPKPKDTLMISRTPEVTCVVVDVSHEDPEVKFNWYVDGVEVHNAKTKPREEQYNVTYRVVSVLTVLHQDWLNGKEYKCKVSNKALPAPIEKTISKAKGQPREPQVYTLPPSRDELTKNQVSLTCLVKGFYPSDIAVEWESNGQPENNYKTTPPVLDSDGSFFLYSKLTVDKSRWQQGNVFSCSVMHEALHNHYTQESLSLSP
light: B1 light
notes: as for B1
Ho/Con_1a [1]: 106 relative (control = 100)

B9: GpH7-B3 variant S298_14T/GpL16-k0 (Ho Ab) (antibody, human IgG1, kappa)
heavy: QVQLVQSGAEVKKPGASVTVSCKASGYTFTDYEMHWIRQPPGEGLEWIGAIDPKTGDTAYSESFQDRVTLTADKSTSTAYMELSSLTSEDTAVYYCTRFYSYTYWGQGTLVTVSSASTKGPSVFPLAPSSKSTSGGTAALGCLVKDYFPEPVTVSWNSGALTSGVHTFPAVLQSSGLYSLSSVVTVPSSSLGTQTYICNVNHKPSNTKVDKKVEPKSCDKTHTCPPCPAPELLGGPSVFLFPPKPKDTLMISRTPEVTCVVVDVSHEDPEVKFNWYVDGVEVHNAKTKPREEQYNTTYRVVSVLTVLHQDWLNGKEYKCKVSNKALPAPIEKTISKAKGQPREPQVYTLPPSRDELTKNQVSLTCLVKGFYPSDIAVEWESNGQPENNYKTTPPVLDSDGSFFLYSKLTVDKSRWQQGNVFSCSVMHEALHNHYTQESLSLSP
light: B1 light
notes: as for B1
Ho/Con_1a [1]: 106 relative (control = 100)

B10: GpH7-A5/GpH7-B3 variant E333_01G/GpL16-k0 (He Ab) (antibody, human IgG1, kappa)
heavy 1: not shown
heavy 2: not shown
light: B1 light
notes: as for B2
He/Con_1a [2]: 103 relative (control = 100)

B11: GpH7-B3 variant S298_07I/GpL16-k0 (Ho Ab) (antibody, human IgG1, kappa)
heavy: not shown
light: B1 light
notes: as for B1
Ho/Con_1a [1]: 103 relative (control = 100)

B12: GpH7-B3 variant S298_15Y/GpL16-k0 (Ho Ab) (antibody, human IgG1, kappa)
heavy: not shown
light: B1 light
notes: as for B1
Ho/Con_1a [1]: 103 relative (control = 100)

B13: GpH7-B3 variant S267_03V/GpL16-k0 (Ho Ab) (antibody, human IgG1, kappa)
heavy: not shown
light: B1 light
notes: as for B1
Ho/Con_1a [1]: 102 relative (control = 100)

B14: GpH7-B3 variant S324_03V/GpL16-k0 (Ho Ab) (antibody, human IgG1, kappa)
heavy: not shown
light: B1 light
notes: as for B1
Ho/Con_1a [1]: 103 relative (control = 100)

B15: GpH7-B3 variant S267_02A/GpL16-k0 (Ho Ab) (antibody, human IgG1, kappa)
heavy: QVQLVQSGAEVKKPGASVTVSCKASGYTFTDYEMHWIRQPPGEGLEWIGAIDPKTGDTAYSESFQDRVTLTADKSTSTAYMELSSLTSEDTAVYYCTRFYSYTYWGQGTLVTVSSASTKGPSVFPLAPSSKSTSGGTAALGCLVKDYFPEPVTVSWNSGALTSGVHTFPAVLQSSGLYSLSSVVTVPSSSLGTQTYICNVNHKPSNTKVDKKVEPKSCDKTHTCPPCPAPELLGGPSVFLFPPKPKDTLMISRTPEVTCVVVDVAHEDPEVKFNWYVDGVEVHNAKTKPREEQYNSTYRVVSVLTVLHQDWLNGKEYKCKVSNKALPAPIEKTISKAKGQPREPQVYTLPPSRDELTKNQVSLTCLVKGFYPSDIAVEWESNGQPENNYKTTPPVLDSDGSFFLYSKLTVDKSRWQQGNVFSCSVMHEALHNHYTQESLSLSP
light: B1 light
notes: as for B1
Ho/Con_1a [1]: 108 relative (control = 100)

B16: GpH7-A5/GpH7-B3 variant E269_04F/GpL16-k0 (He Ab) (antibody, human IgG1, kappa)
heavy 1: not shown
heavy 2: not shown
light: B1 light
notes: as for B2
He/Con_1a [2]: 103 relative (control = 100)

B17: GpH7-B3 variant S324_20W/GpL16-k0 (Ho Ab) (antibody, human IgG1, kappa)
heavy: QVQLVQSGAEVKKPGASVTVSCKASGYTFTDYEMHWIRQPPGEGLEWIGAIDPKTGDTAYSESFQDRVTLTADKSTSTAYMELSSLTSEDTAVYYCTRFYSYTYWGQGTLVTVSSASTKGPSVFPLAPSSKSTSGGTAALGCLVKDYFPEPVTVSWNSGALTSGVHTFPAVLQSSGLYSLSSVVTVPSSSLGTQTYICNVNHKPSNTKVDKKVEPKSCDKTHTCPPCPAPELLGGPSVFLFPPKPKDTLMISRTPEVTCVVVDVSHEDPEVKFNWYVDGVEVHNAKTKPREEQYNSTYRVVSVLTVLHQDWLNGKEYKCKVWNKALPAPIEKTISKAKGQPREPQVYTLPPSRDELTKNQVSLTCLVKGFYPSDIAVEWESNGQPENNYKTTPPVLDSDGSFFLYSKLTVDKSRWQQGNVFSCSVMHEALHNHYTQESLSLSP
light: B1 light
notes: as for B1
Ho/Con_1a [1]: 112 relative (control = 100)

B18: GpH7-B3 variant S298_10E/GpL16-k0 (Ho Ab) (antibody, human IgG1, kappa)
heavy: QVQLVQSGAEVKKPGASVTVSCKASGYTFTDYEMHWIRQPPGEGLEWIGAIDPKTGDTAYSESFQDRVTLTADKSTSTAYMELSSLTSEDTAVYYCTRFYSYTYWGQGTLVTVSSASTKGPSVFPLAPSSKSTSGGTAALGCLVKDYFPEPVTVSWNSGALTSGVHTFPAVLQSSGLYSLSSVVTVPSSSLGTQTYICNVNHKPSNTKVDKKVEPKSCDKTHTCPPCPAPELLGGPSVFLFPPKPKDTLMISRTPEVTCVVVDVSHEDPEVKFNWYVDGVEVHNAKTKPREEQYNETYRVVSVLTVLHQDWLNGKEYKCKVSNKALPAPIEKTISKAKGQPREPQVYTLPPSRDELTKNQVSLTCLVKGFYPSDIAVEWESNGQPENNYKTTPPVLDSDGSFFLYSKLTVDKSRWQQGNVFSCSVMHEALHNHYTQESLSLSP
light: B1 light
notes: as for B1
Ho/Con_1a [1]: 106 relative (control = 100)

B19: GpH7-A5/GpH7-B3 variant E269_08L/GpL16-k0 (He Ab) (antibody, human IgG1, kappa)
heavy 1: not shown
heavy 2: not shown
light: B1 light
notes: as for B2
He/Con_1a [2]: 104 relative (control = 100)

B20: GpH7-A5/GpH7-B3 variant E333_13S/GpL16-k0 (He Ab) (antibody, human IgG1, kappa)
heavy 1: not shown
heavy 2: not shown
light: B1 light
notes: as for B2
He/Con_1a [2]: 103 relative (control = 100)

B21: GpH7-A5/GpH7-B3 variant K326_14T/GpL16-k0 (He Ab) (antibody, human IgG1, kappa)
heavy 1: not shown
heavy 2: not shown
light: B1 light
notes: as for B2
He/Con_1a [2]: 104 relative (control = 100)

B22: GpH7-B3 variant S324_19Q/GpL16-k0 (Ho Ab) (antibody, human IgG1, kappa)
heavy: not shown
light: B1 light
notes: as for B1
Ho/Con_1a [1]: 111 relative (control = 100)

B23: GpH7-B3 variant S337_01G/GpL16-k0 (Ho Ab) (antibody, human IgG1, kappa)
heavy: not shown
light: B1 light
notes: as for B1
Ho/Con_1a [1]: 102 relative (control = 100)

B24: GpH7-A5/GpH7-B3 variant A330_14T/GpL16-k0 (He Ab) (antibody, human IgG1, kappa)
heavy 1: not shown
heavy 2: not shown
light: B1 light
notes: as for B2
He/Con_1a [2]: 105 relative (control = 100)

B25: GpH7-B3 variant S324_14T/GpL16-k0 (Ho Ab) (antibody, human IgG1, kappa)
heavy: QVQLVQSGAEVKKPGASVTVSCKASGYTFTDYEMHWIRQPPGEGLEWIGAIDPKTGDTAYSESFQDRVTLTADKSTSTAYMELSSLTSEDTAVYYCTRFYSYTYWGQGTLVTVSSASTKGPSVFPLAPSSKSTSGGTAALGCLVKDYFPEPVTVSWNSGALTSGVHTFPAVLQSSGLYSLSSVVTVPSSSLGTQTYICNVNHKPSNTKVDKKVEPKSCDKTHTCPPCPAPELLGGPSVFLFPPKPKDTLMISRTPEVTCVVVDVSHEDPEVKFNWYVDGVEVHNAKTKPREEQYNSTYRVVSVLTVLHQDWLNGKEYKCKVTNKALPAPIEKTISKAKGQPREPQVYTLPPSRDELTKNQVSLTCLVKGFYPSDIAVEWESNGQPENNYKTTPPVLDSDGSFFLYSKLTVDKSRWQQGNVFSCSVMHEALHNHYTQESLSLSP
light: B1 light
notes: as for B1
Ho/Con_1a [1]: 112 relative (control = 100)

B26: GpH7-A5/GpH7-B3 variant A330_08L/GpL16-k0 (He Ab) (antibody, human IgG1, kappa)
heavy 1: not shown
heavy 2: not shown
light: B1 light
notes: as for B2
He/Con_1a [2]: 107 relative (control = 100)

B27: GpH7-A5/GpH7-B3 variant I336_01G/GpL16-k0 (He Ab) (antibody, human IgG1, kappa)
heavy 1: not shown
heavy 2: not shown
light: B1 light
notes: as for B2
He/Con_1a [2]: 109 relative (control = 100)

B28: GpH7-B3 variant S298_19Q/GpL16-k0 (Ho Ab) (antibody, human IgG1, kappa)
heavy: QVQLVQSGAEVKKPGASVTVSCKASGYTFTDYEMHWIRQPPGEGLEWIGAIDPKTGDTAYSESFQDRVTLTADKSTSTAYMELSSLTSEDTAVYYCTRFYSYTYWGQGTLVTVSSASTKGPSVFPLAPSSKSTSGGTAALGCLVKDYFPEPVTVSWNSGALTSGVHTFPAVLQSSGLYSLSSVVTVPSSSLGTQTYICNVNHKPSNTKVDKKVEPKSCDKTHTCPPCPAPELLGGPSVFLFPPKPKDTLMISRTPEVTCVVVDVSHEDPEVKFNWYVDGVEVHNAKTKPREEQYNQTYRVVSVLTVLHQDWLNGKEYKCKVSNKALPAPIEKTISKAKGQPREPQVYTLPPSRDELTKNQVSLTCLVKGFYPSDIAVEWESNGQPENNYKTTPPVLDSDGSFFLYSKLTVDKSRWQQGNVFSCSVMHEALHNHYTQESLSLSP
light: B1 light
notes: as for B1
Ho/Con_1a [1]: 105 relative (control = 100)

B29: GpH7-A5/GpH7-B3 variant I336_03V/GpL16-k0 (He Ab) (antibody, human IgG1, kappa)
heavy 1: not shown
heavy 2: not shown
light: B1 light
notes: as for B2
He/Con_1a [2]: 105 relative (control = 100)

B30: GpH7-B3 variant S298_08L/GpL16-k0 (Ho Ab) (antibody, human IgG1, kappa)
heavy: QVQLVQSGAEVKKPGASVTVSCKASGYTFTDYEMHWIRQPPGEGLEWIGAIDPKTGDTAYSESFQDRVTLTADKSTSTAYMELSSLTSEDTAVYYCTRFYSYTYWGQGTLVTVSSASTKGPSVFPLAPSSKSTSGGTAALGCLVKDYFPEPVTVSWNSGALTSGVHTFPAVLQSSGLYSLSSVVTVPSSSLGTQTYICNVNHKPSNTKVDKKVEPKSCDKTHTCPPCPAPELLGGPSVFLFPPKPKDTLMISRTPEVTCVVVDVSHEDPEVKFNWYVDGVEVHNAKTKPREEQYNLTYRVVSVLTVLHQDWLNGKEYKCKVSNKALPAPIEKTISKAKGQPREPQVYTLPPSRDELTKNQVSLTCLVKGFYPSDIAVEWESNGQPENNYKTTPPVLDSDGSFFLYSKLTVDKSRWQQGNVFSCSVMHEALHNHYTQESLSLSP
light: B1 light
notes: as for B1
Ho/Con_1a [1]: 104 relative (control = 100)

B31: GpH7-B3 variant S337_02A/GpL16-k0 (Ho Ab) (antibody, human IgG1, kappa)
heavy: not shown
light: B1 light
notes: as for B1
Ho/Con_1a [1]: 103 relative (control = 100)

B32: GpH7-B3 variant S239_09D/GpL16-k0 (Ho Ab) (antibody, human IgG1, kappa)
heavy: not shown
light: B1 light
notes: Ho Ab: alteration in both H chains; also called GpH7-B3-06-09D/GpL16-k0
Ho/Con_1a [1]: 101 relative (control = 100)

B33: GpH7-B3 variant S298_18N/GpL16-k0 (Ho Ab) (antibody, human IgG1, kappa)
heavy: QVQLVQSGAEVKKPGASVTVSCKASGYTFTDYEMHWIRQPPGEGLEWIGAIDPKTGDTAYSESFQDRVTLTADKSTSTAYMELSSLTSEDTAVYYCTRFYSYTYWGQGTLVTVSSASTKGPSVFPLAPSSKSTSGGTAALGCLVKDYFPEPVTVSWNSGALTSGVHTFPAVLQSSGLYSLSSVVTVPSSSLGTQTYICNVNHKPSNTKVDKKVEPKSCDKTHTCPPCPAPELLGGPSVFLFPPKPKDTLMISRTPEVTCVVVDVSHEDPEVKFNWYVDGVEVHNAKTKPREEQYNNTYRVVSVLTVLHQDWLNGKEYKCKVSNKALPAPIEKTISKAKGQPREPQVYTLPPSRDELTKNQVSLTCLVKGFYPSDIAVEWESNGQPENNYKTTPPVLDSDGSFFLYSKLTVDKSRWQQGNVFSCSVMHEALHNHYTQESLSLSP
light: B1 light
notes: as for B1
Ho/Con_1a [1]: 104 relative (control = 100)

B34: GpH7-B3 variant S267_09D/GpL16-k0 (Ho Ab) (antibody, human IgG1, kappa)
heavy: not shown
light: B1 light
notes: as for B1
Ho/Con_1a [1]: 106 relative (control = 100)

B35: GpH7-A5/GpH7-B3 variant A327_09D/GpL16-k0 (He Ab) (antibody, human IgG1, kappa)
heavy 1: not shown
heavy 2: not shown
light: B1 light
notes: as for B2
He/Con_1a [2]: 103 relative (control = 100)

B36: GpH7-B3 variant S324_08L/GpL16-k0 (Ho Ab) (antibody, human IgG1, kappa)
heavy: not shown
light: B1 light
notes: as for B1
Ho/Con_1a [1]: 103 relative (control = 100)

B37: GpH7-B3 variant S324_02A/GpL16-k0 (Ho Ab) (antibody, human IgG1, kappa)
heavy: not shown
light: B1 light
notes: as for B1
Ho/Con_1a [1]: 103 relative (control = 100)

B38: GpH7-A5/GpH7-B3 variant I336_10E/GpL16-k0 (He Ab) (antibody, human IgG1, kappa)
heavy 1: not shown
heavy 2: not shown
light: B1 light
notes: as for B2
He/Con_1a [2]: 108 relative (control = 100)

B39: GpH7-A5/GpH7-B3 variant I336_18N/GpL16-k0 (He Ab) (antibody, human IgG1, kappa)
heavy 1: not shown
heavy 2: not shown
light: B1 light
notes: as for B2
He/Con_1a [2]: 108 relative (control = 100)

B40: GpH7-B3 variant S298_16H/GpL16-k0 (Ho Ab) (antibody, human IgG1, kappa)
heavy: not shown
light: B1 light
notes: as for B1
Ho/Con_1a [1]: 107 relative (control = 100)

B41: GpH7-B3 variant S267_01G/GpL16-k0 (Ho Ab) (antibody, human IgG1, kappa)
heavy: not shown
light: B1 light
notes: as for B1
Ho/Con_1a [1]: 102 relative (control = 100)

B42: GpH7-A5/GpH7-B3 variant E269_15Y/GpL16-k0 (He Ab) (antibody, human IgG1, kappa)
heavy 1: not shown
heavy 2: not shown
light: B1 light
notes: as for B2
He/Con_1a [2]: 106 relative (control = 100)

B43: GpH7-A5/GpH7-B3 variant I336_02A/GpL16-k0 (He Ab) (antibody, human IgG1, kappa)
heavy 1: not shown
heavy 2: not shown
light: B1 light
notes: as for B2
He/Con_1a [2]: 106 relative (control = 100)

B44: GpH7-B3 variant S337_03V/GpL16-k0 (Ho Ab) (antibody, human IgG1, kappa)
heavy: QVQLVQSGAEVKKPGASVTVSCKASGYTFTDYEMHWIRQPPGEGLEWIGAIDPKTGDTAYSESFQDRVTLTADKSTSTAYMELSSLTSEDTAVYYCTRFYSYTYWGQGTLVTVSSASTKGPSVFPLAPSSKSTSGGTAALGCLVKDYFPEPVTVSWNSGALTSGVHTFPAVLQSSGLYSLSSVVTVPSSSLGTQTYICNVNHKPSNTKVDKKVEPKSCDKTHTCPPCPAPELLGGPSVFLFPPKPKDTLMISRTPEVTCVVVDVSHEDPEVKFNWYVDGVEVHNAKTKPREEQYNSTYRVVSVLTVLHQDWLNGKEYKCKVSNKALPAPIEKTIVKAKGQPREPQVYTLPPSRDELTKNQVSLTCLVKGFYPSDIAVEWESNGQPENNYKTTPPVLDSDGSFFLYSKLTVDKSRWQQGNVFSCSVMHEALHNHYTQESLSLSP
light: B1 light
notes: as for B1
Ho/Con_1a [1]: 105 relative (control = 100)

Source: US20180155451A1 (published 2018)
